B1: ZNF207 (parent)
chain: YQGGPPRPPMGMRPPVMSQGGRY
B2: IKZF1 (parent)
chain: RDPFECNMCGYHSQDRYEFSSHIT
B3: SCNN1D (parent)
chain: FYRLYQDLETHRLPCTSRCPRPCR

Variants of: B1
Test: protein stability index of a GFP-peptide fusion (GPS, HEK-293T) (PSI 1-6); higher = more stable
Conditions: c terminus: native
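Further: lentivirally expressed fusions sorted by FACS into six bins by GFP to DsRed ratio, PSI derived from sequencing read proportions per bin multiplied by bin number.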

Protein stability index: each site, then its substitutions
S18: N 2.13; R 2.2; E 2.72; L 2.28; D 2.04; P 2.08; W 2.56; K 1.81; H 1.44; Y 1.58
G11: L 1.82; S 1.52; H 1.43; C 1.81; P 1.6; Y 2.14; N 1.97; I 2.95
Y23: M 2.44; C 1.97; L 1.66; P 2.82; S 2.43; D 3.11; E 2.37; V 1.5; W 3.51; T 1.9; A 1.98
P14: K 1.43; C 2.27; G 2.35; A 1.47
Q19: E 2.17; R 2.17; T 2.39; P 1.9; K 2.18; N 2.56; L 1.46; H 4.08
M10: V 2.57; L 1.4; Q 2.14; H 2.34; I 3.45; N 1.82; S 2.1
P6: S 2.45; M 2.19; G 2.07; I 2.49; E 2.95; T 2.06; C 1.96; A 1.6; H 2.23; Y 1.78; L 2.58; Q 2.2; K 2.91; D 2.73; N 2.59
Q2: M 2.05; G 3.02; L 2.34; K 2.57; P 1.72; A 2.19; W 2.1; N 2.45; Y 2.89; F 1.65; D 2.16; E 2.4
P8: S 1.95; V 1.57; A 1.09; H 2.98; N 2.49; I 2.2; C 1; K 2.35
R22: K 1.99; M 1.69; S 1.7; D 1.89; Q 1.43; F 1.21; H 1.91; T 1.89
G21: F 1.72; H 1.77; Q 2.1; T 2.74; C 2.24; S 1.82; R 2.27; P 3.63; V 2.3
M12: E 2.88; R 1.35; S 2.64; K 2.34; T 2.64; V 2.79; I 2.25; G 2.05
Y1: A 3.11; I 2.89; T 2.64; W 2.49; Q 3.65; C 3.27; S 1.67; H 2.91; G 3.87; R 3.21; N 3.31; M 3.87; K 3.55
P5: N 2.12; C 1.61; E 2.81; H 1.92; I 1.71; M 1.22; A 2.27; V 2.82; K 2.56; G 2.99; T 3.09; L 2.34; Q 2.62
M17: C 4; S 2.62; L 1.52; Y 1.75; W 1.67; V 1.49; D 2.86; G 2.42; F 2.17; Q 2.56; K 2.85
P15: Q 2.65; K 1.09; R 2.07; S 2.23; N 1.72; F 1.58; T 1.61; D 2.27; V 3.12; H 2.71; E 2.2
G20: Y 1.68; R 2.75; W 2.46; S 1.67; K 2.16; E 2.23; F 1.88
P9: T 2.49; K 1.73; G 2.84; L 1.28; R 1.87; W 4.64; N 1.44; A 1.83; M 1.12; H 1.41; V 1.68; I 2.91
V16: W 1.75; I 2.03; H 2.71; K 2.93; C 2.44; N 2.65; F 2.18
R7: L 1.7; E 3.09; M 1.51; G 2.8; K 2.71; V 1.66; C 1.23; I 1.92; S 2.98
R13: M 2.1; W 1.79; F 2.23; S 1.96; I 2.76
G3: A 2.62; N 1.38; K 2.89; H 1.5; Y 2.42; Q 2.32; L 2.31; V 1.43; W 1.39; M 1.59; I 3.37; E 2.33; S 1.47
G4: E 2.69; M 1.46; I 2.34; Q 3.54; V 2.74; D 3.56; S 3.05; H 2.6; N 3.23; K 2.78; W 3.5; R 2.51; Y 2.05; C 2.52; L 1.5

Variants of: B2
Test: as above
Conditions: c terminus: a fixed tail appended

Protein stability index: each site, then its substitutions
F19: S 2.6; W 1.44; R 2.38; T 2.94; Y 2.47; V 2.08
H22: I 1.83; C 2.54; D 2.7; V 1.75; W 1.65; Y 2.84; A 2.15; K 1.92; T 2.08; M 1.79; P 2.12; L 1.81; N 2.28; S 1.88; F 1.97; R 1.58; E 2.55; G 2.17; Q 2.02
S20: V 2.16; D 2.3; G 2.05; T 2.04; C 3.08; F 1.59; W 2.15; E 2.64; M 2.06; N 2.08; H 2.21; K 1.93; P 2.51; A 2.13; L 2.44; Q 1.94; Y 1.71; R 2.08; I 2.06
S21: M 1.84; D 2.17; Y 1.57; H 2.63; L 2.03; C 2.21; I 2.28; E 2.27; Q 1.83; R 1.84; V 2.36; A 1.81; N 2.3; T 2.35; G 2.38; W 2.31; F 2.06; K 2.28; P 2.68
T24: D 2.68; C 5.1; F 1.95; G 1.74; W 2.71; L 2.19; A 2.42; V 1.85; P 2.32; E 2.47; I 2.28; K 2.52; R 2.24; H 2.38; S 1.75; Q 2.18; M 1.57; Y 1.39; N 2.23
I23: H 2.57; E 3.48; N 2.28; W 1.77; Y 1.82; S 2.5; F 2.03; D 3.32; R 2; L 2.15; T 2.36; Q 2.21; P 2.35; A 2.23; C 2.59; G 2.43; M 2.27; V 2.43; K 2.75

Variants of: B3
Test: as above
Conditions: c terminus: a fixed tail appended

Protein stability index of substitutions, site by site:
F1: E 3.71; G 4.3; K 3.37; A 2.87; C 2.22; H 3.06; I 2.12; L 1.54; D 3.8

Reference: the supplement of paper PMC10567573
